Target: the molecule itself
Assay: SEC-MALS; POP3 PYD (1-83) alone on column HR 10/30 in 20 mM Tris-HCl pH 8.0, 150 mM NaCl; three-angle light scattering and refractive index detectors, ASTRA software

B1: PYD domain of PYRIN Domain-Only Protein 3 (POP3), amino acids 1-83 (domain or fragment, human, UniProt W6CW81 1-83, looked up)
chain: MESKYKEILLLTSLDNITDEELDRFKCFLPDEFNIATGKLHTLNSTSSQLDLKRWHGVCSEEDRIFQKLNYMLVAKCLREEQE
notes: PYRIN domain-only protein 3 (POP3), human, PYD domain, residues 1-83 of the 113-residue protein; The vector probably adds linker residues before the His6; also called POP3 PYD (1-83 aa); POP3PYD; not shown: His6, C-terminal, kept
In the case of B1, the “stoichiometry N” value is reported as 2.
